As usually defined, the stoichiometry N is the number of molecules, sites or subunits per partner or assembly.

The results in this text go back to publication PMC10801813, “In silico protein interaction screening uncovers DONSON’s role in replication initiation” (Science (New York, N.Y.), 2023).

Data set [1] has as its target T1, Recombinant Xenopus GINS (preparation of ref. 54, Sf9 expression) (Xenopus laevis, UniProt Q7ZT47 1-196; Q7ZT46 1-185; Q7ZT01 1-210; Q7ZT48 1-221).
T1 construct: PSF1 subunit of Xenopus GINS; PSF2 subunit of Xenopus GINS; PSF3 subunit of Xenopus GINS; SLD5 subunit of Xenopus GINS; also called purified GINS; source: Sf9 expression, purified; copies: + + +
T1 sequence (looked up) 1: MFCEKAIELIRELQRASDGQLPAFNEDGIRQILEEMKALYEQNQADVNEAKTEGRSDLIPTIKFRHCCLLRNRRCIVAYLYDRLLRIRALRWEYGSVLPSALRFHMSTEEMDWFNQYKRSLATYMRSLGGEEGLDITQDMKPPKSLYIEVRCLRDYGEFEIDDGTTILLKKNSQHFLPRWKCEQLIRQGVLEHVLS
T1 sequence (looked up) 2: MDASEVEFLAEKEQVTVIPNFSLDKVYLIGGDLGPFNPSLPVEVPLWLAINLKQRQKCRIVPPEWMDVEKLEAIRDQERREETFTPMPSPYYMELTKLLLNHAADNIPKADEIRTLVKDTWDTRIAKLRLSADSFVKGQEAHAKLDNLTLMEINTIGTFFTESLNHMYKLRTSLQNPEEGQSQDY
T1 sequence (looked up) 3: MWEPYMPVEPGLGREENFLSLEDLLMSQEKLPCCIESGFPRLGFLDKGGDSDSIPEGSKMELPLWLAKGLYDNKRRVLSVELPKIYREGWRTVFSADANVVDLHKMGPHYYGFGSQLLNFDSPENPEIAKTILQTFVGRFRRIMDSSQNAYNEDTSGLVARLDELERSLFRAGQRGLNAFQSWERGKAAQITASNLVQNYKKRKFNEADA
T1 sequence (looked up) 4: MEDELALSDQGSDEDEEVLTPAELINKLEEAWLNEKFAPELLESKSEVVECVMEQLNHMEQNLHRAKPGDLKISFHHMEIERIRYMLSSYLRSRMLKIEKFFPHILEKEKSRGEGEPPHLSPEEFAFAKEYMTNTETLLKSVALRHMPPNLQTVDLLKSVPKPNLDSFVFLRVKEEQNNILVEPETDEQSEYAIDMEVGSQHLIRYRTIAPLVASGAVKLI
As to the kind of experiment: co-IP; purified FLAG-DONSON, GINS and TOPBP1^1−530 mixed, each 0.5 μM in IP wash buffer, 15 min room temperature; anti-FLAG beads 30 min room temperature; immunoblot (fig. S11B, lanes 22 to 24). To be noted: both partners purified. Background: A western blot detects proteins with antibodies after separation by electrophoresis.

Data set [2] concerns the molecule itself. As to the kind of experiment: mass photometry; Refeyn TwoMP; FLAG-DONSON diluted to 200 nM in egg lysis buffer (10 mM HEPES-KOH pH 7.7, 50 mM KCl, 2.5 mM MgCl2, 250 mM sucrose), 2 μL mixed into an 18 μL droplet of PBS.

B1: Recombinant FLAG-tagged DONSON, wild type (natural protein, Xenopus laevis, UniProt Q5U4U4 1-579, looked up)
chain: MAELLPGYSPSFKKPSEILRLSRRRSRSEASKTGLSPFSPGDVIKRVPGLRPFSPGPNKGAGVKRRNPFASLENTVCSPVKRRAETVAEYGAASLEPRALSAVRPSCLGQDSPEPPQFNSVEDVIWGDPLAADADPLVKTESPEKPAPACEIPKGSVTFPADWSLKTRLLFTSSHSFSWADHLKAQEEAQGLVMQCRATAVNLPHSIQEPKLSTDLRCAFQQSLVHWIHPSLPWVQLFPRIGVDRKMAGKNTPWSQDESLQQVLMSEWALSFTSLYNLLKAKLCPYFYVCTYQFTVLFRAAGLAGSDVITAVMSPTTRGLREAMKNEGITFSQPLVEDDTGKKQKKPEAASQGDINPEKENGTAEADEASDESDEDESFSWLEEMGVEDKIKKPDSISIKLRKEKNEVKLDHKPESVVLVKGTNTFTLLNFLINCKSIVAAAGLQAGLPPTLLSPVAFRGATMHALKARSVNVKTRVNSGYKDQFSLEITGPIMPHSLHSLTMLLQSAQRGSFSAGLYTHEPTAVFNTPIHSQAVKEISADLQNCGLHPCTVEQLTQVNELGKLSLRHLEMTDYRYTWK
notes: Xenopus DONSON (Downstream Neighbor of SON); also called rFLAG-DONSON; FLAG-DONSON; source: E. coli Rosetta (DE3) pLysS, purified (Glutathione Sepharose, PreScission cleavage, Superdex 200); not shown: GST, N-terminal, cleaved
With B1, in data set [1], the binding result is “binds”. The “stoichiometry N” value in data set [2] is 2.

B2: Recombinant FLAG-tagged DONSON N430A (natural protein, Xenopus laevis, UniProt Q5U4U4 1-579, looked up)
chain: MAELLPGYSPSFKKPSEILRLSRRRSRSEASKTGLSPFSPGDVIKRVPGLRPFSPGPNKGAGVKRRNPFASLENTVCSPVKRRAETVAEYGAASLEPRALSAVRPSCLGQDSPEPPQFNSVEDVIWGDPLAADADPLVKTESPEKPAPACEIPKGSVTFPADWSLKTRLLFTSSHSFSWADHLKAQEEAQGLVMQCRATAVNLPHSIQEPKLSTDLRCAFQQSLVHWIHPSLPWVQLFPRIGVDRKMAGKNTPWSQDESLQQVLMSEWALSFTSLYNLLKAKLCPYFYVCTYQFTVLFRAAGLAGSDVITAVMSPTTRGLREAMKNEGITFSQPLVEDDTGKKQKKPEAASQGDINPEKENGTAEADEASDESDEDESFSWLEEMGVEDKIKKPDSISIKLRKEKNEVKLDHKPESVVLVKGTNTFTLLAFLINCKSIVAAAGLQAGLPPTLLSPVAFRGATMHALKARSVNVKTRVNSGYKDQFSLEITGPIMPHSLHSLTMLLQSAQRGSFSAGLYTHEPTAVFNTPIHSQAVKEISADLQNCGLHPCTVEQLTQVNELGKLSLRHLEMTDYRYTWK
notes: Xenopus DONSON with N430A; source: E. coli Rosetta (DE3) pLysS, purified (Glutathione Sepharose, PreScission cleavage, Superdex 200); not shown: GST, N-terminal, cleaved
Turning to B2, the binding result in data set [1] is listed as “binds”.
